Source: paper PMC4072508, “Genome-Wide Prediction and Validation of Peptides That Bind Human Prosurvival Bcl-2 Proteins” (PLoS Computational Biology, 2014)

The binders below were run against Bcl-xL, Q07817 (assay: peptide SPOT array, c-Myc-tagged receptor at 1 uM or 100 nM, anti-c-Myc-Cy3).
Chain of Bcl-xL, Q07817 (Q07817 1-209): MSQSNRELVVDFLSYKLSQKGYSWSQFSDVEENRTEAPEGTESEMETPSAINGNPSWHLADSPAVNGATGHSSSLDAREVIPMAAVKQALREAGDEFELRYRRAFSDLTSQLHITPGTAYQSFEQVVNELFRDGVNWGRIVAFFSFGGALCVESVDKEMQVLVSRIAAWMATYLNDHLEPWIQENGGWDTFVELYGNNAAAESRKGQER
Binder HPRRESQVRQDAWIGDGVWVSIRLDS [MAPK8IP3] has an SPOT signal as a fraction of Bim BH3's signal on the same receptor and array of 0.02.
Binder DHTDGVVACADGLIGDLCTAFGKDVL [KPNB1] has an SPOT signal as a fraction of Bim BH3's signal on the same receptor and array of 0.02.
For PPDAHVLGKALEAAGQDFSLDLRSTG [CIITA], the SPOT signal as a fraction of Bim BH3's signal on the same receptor and array was 0.02.
ELQAPATVQSLGLLLDRLCVGAAGGF [CDC42BPG] was tested, and the SPOT signal as a fraction of Bim BH3's signal on the same receptor and array was 0.01.
For RRTSINVVRHLGIVGECNIQFALHPT, the SPOT signal as a fraction of Bim BH3's signal on the same receptor and array was 0.03.
In the case of NKRHRPIGIGVQGLLDAFILMRYPFE [RRM1], the SPOT signal as a fraction of Bim BH3's signal on the same receptor and array is reported as 0.04.
CALLGSTGERICLAGDSAGGNLCFTV [LIPE] gave an SPOT signal as a fraction of Bim BH3's signal on the same receptor and array of 0.01.
Binder AALFLHAGCQLLTAGEDGKVQVWSGS [TEP1] has an SPOT signal as a fraction of Bim BH3's signal on the same receptor and array of 0.02.
For HGTSSRIGSSDKSVGEVMAIGRTFEE, the SPOT signal as a fraction of Bim BH3's signal on the same receptor and array was 0.02.
For IVGGCVVGIAMARFLDFIRGMLKLIL [DIRC2], the SPOT signal as a fraction of Bim BH3's signal on the same receptor and array was 0.29.
Work on NKTMTQLSSTDARCAKDILGFAVMFF [PKD2L1] yielded an SPOT signal as a fraction of Bim BH3's signal on the same receptor and array of 0.03.
In the case of CGDLASLSIDIWTLGEEVDGRRLVVA [BIRC6], the SPOT signal as a fraction of Bim BH3's signal on the same receptor and array is reported as 0.02.
For DSLAKFAGRKLKDCLEDLLVEISEVL [PCM1], the SPOT signal as a fraction of Bim BH3's signal on the same receptor and array was 0.02.
LGLGELAGLTVANELDSLTYDIANNK [STRN] gave an SPOT signal as a fraction of Bim BH3's signal on the same receptor and array of 0.02.
TPSRSALSSELSLVGDTTGDTLEKFV [CREBBP] gave an SPOT signal as a fraction of Bim BH3's signal on the same receptor and array of 0.02.
Binder HPRKESQVRQLAWVLDGVWVSIRLDS [SPAG9] has an SPOT signal as a fraction of Bim BH3's signal on the same receptor and array of 0.02.
With FRLAQMCGLHDVVHADELEELINYYQ [CLTC] the SPOT signal as a fraction of Bim BH3's signal on the same receptor and array was 0.02.

Target: T1, Mcl-1, Q07820
T1 chain: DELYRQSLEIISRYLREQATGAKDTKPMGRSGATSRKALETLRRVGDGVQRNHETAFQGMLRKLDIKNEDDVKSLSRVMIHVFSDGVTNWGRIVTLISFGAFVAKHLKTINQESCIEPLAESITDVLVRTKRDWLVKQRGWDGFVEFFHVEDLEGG
Experiment: as above
Work on HPRRESQVRQDAWIGDGVWVSIRLDS [MAPK8IP3] yielded an SPOT signal as a fraction of Bim BH3's signal on the same receptor and array of 0.02.
DHTDGVVACADGLIGDLCTAFGKDVL [KPNB1] showed an SPOT signal as a fraction of Bim BH3's signal on the same receptor and array of 0.01.
Binder PPDAHVLGKALEAAGQDFSLDLRSTG [CIITA] has an SPOT signal as a fraction of Bim BH3's signal on the same receptor and array of 0.01.
ELQAPATVQSLGLLLDRLCVGAAGGF [CDC42BPG] was tested, and the SPOT signal as a fraction of Bim BH3's signal on the same receptor and array was 0.01.
RRTSINVVRHLGIVGECNIQFALHPT gave an SPOT signal as a fraction of Bim BH3's signal on the same receptor and array of 0.02.
NKRHRPIGIGVQGLLDAFILMRYPFE [RRM1] gave an SPOT signal as a fraction of Bim BH3's signal on the same receptor and array of 0.05.
CALLGSTGERICLAGDSAGGNLCFTV [LIPE] gave an SPOT signal as a fraction of Bim BH3's signal on the same receptor and array of 0.01.
AALFLHAGCQLLTAGEDGKVQVWSGS [TEP1] was tested, and the SPOT signal as a fraction of Bim BH3's signal on the same receptor and array was 0.02.
For HGTSSRIGSSDKSVGEVMAIGRTFEE, the SPOT signal as a fraction of Bim BH3's signal on the same receptor and array was 0.02.
IVGGCVVGIAMARFLDFIRGMLKLIL [DIRC2] gave an SPOT signal as a fraction of Bim BH3's signal on the same receptor and array of 0.18.
NKTMTQLSSTDARCAKDILGFAVMFF [PKD2L1] was tested, and the SPOT signal as a fraction of Bim BH3's signal on the same receptor and array was 0.02.
CGDLASLSIDIWTLGEEVDGRRLVVA [BIRC6] showed an SPOT signal as a fraction of Bim BH3's signal on the same receptor and array of 0.02.
DSLAKFAGRKLKDCLEDLLVEISEVL [PCM1] was tested, and the SPOT signal as a fraction of Bim BH3's signal on the same receptor and array was 0.02.
With LGLGELAGLTVANELDSLTYDIANNK [STRN] the SPOT signal as a fraction of Bim BH3's signal on the same receptor and array was 0.01.
Binder TPSRSALSSELSLVGDTTGDTLEKFV [CREBBP] has an SPOT signal as a fraction of Bim BH3's signal on the same receptor and array of 0.01.
With HPRKESQVRQLAWVLDGVWVSIRLDS [SPAG9] the SPOT signal as a fraction of Bim BH3's signal on the same receptor and array was 0.02.
FRLAQMCGLHDVVHADELEELINYYQ [CLTC] gave an SPOT signal as a fraction of Bim BH3's signal on the same receptor and array of 0.02.
